# B1: Ceramide transfer protein (Homo sapiens), Q9Y5P4-2 (parent)
# chain: MSDNQSWNSSGSEEDPETESGPPVERCGVLSKWTNYIHGWQDRWVVLKNNALSYYKSEDETEYGCRGSICLSKAVITPHDFDECRFDISVNDSVWYLRAQDPDHRQQWIDAIEQHKTESGYGSESSLRRHGSMVSLVSGASGYSATSTSSFKKGHSLREKLAEMETFRDILCRQVDTLQKYFDACADAVSKDELQRDKVVEDDEDDFPTTRSDGDFLHSTNGNKEKLFPHVTPKGINGIDFKGEAITFKATTAGILATLSHCIELMVKREDSWQKRLDKETEKKRRTEEAYKNAMTELKKKSHFGGPDYEEGPNSLINEEEFFDAVEAALDRQDKIEEQSQSEKVRLHWPTSLPSGDAFSSVGTHRFVQKVEEMVQNHMTYSLQDVGGDANWQLVVEEGEMKVYRREVEENGIVLDPLKATHAVKGVTGHEVCNYFWNVDVRNDWETTIENFHVVETLADNAIIIYQTHKRVWPASQRDVLYLSVIRKIPALTENDPETWIVCNFSVDHDSAPLNNRCVRAKINVAMICQTLVSPPEGNQEISRDNILCKITYVANVNPGGWAPASVLRAVAKREYPKFLKRFTSYVQEKTAGKPILF
# Variants of: B1
# Settings: with samp_human APCS
row,Variant,effect of a mutation on the interaction
1,Y435A;F436A,decreasing interaction strength
2,V472A;W473A,with no effect
3,I413A;W562A,decreasing interaction strength
4,N434A;Y435A,with no effect
5,P474G;A475Q,disrupting interaction strength

# Variants of: B1
# Settings: with samp_human APCS
# Remark: another data set of the same source
row,Variant,effect of a mutation on the interaction
1,N434A;Y435A,decreasing interaction strength

# Source: IntAct's records for PubMed 22396542
